From PMC12599251, “Nitration-driven structural changes in Hsp90 linked to gain of pathological functions” (Biochemical Journal, 2025)

B1: Human Hsp90β with Y33 and Y56 replaced by phenylalanine, treated with 0.5 mM peroxynitrite (natural protein)
chain: not shown
modifications: oxidised with 0.5 mM peroxynitrite; Y276, Y484 and Y596 are named as also prone to nitration
notes: Human Hsp90β, UniProtKB P08238, gene HSP90AB1; Y33 and Y56 replaced by phenylalanine, oxidised in vitro with peroxynitrite; Peroxynitrite gives a mixed product; also called Hsp90^F33-56 + ONOO^-; Hsp90^F33-F56 + ONOO^-; source: E. coli BL21-AI, purified (Ni-NTA, Sephacryl-300 SEC), then treated with 0.5 mM peroxynitrite
B2: Human Hsp90β with Y33 and Y56 replaced by phenylalanine (natural protein)
chain: not shown
notes: Human Hsp90β, UniProtKB P08238, gene HSP90AB1; Y33 and Y56 replaced by nitration-resistant phenylalanine; also called Hsp90^F33-56; Hsp90^F33-F56; source: E. coli BL21-AI, purified (Ni-NTA, Sephacryl-300 SEC)

Biological target: the molecule itself
Assay: AUC; sedimentation velocity, 42,000 rpm, 20°C, 11-15 uM protein, absorbance at 280 nm, continuous c(S) distribution (SEDFIT); peroxynitrite-treated samples dialyzed beforehand

Protein	stoichiometry N
B1	2
B2	2
